Experimental data: paper PMC4516936 (Toxins, 2015)

B1: CTA2/CTB5 complex (complex)
chain 1: MSNTCDEKTQSLGVKFLDEYQSKVKRQIFSGYQSDIDTHNRIKDEL
chain 2: TPQNITDLCAEYHNTQIYTLNDKIFSYTESLAGKREMAIITFKNGAIFQVEVPGSQHIDSQKKAIERMKDTLRIAYLTEAKVEKLCVWNNKTPHAIAAISMAN
notes: copies: + 5

Legend:
[1] = target: cholera toxin A2 CTA2 (Vibrio cholerae) (UniProt P01555); assay: SPR; conditions: cited from earlier work
[2] = target: cholera toxin A1 subunit (CTA1), reduced, free (UniProt P01555 19-212); assay: SPR; conditions: both partners purified
Sequence of cholera toxin A1 subunit (CTA1), reduced, free (P01555 19-212): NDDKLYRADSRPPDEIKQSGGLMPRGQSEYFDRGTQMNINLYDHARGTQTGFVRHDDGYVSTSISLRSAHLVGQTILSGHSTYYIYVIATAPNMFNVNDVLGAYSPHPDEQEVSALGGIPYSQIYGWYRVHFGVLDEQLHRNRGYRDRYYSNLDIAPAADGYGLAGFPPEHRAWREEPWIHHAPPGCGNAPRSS

Molecule | Kd [1] | kon [2]
cholera toxin A1 CTA1 (from UniProt P01555) | 53 nM | –
B1 | – | 521 M⁻¹ s⁻¹
